Format in all cases: physicochemical
A short description of data set [1]: Proof of concept (pivotal experiment): D-optimal design for the injection solvent and vial coating that minimize glass adsorption, UHPLC-MS/MS peak area.
Protocol: 36 model peptides were selected for evaluation of the anti-adsorption diluent general functionality. The most suitable solvent composition and need of vial coating with the anti-adsorption diluent was evaluated via a D-optimal design model generated by Modde software (Umetrics, Umea, Sweden).
The peptides were analyzed at the concentration specified in Table 5. For model optimization, the analysis wizard was used. […] In the next step, the non-significant model terms (i.e. those not contributing to a higher R^2 and/or Q^2) were removed via the coefficient plot. Outliers in the residuals normal probability plot and the observed versus predicted plot were removed. The optimum was calculated using the optimizer tool of the Modde software.
Using the same UHPLC-MS/MS apparatus as previously described in the proof of principle, the column compartment was kept at 60° C. and the sample compartment at 10° C. respectively. […] The peptides analyzed using the HILIC amide or C18 column system are mentioned in Table 7. […]
To further investigate the wide applicability of this novel anti-adsorption diluent, 36 peptides were selected. […] The necessity of prior coating the vial with anti-adsorption diluent was also evaluated in the same D-optimal design model. Prior to this experiment, the LC-MS suitability of the anti-adsorption diluent was evaluated by injecting the anti-adsorption diluent as such. […]
Data set [2] is described as follows: Proof of principle (pilot experiment): peptide recovery over time in uncoated glass vial inserts, UHPLC-MS/MS. The following applies: anti-adsorption diluent Source 1, 100 ng/mL, glass vial insert. The procedure: The peptide with amino acid sequence […] (SEQ ID No: 1) was stored in uncoated (U)HPLC vial inserts at a concentration of 100 ng/mL in 2 different solvents for a total of approximately 2 h. […] The vials were stored in the UHPLC autosampler compartment during analysis and at 0 min a vial containing solvent 1 and 100 ng/mL peptide was injected onto the UHPLC-MS/MS to serve as reference. The peptide recovery was calculated by dividing the peptide peak area of each time point and condition by the peptide peak area of sample 0 min in solvent 1. Appropriate blank samples were first subjected to the UHPLC-MS/MS for evaluation of interfering substances. This experiment was performed in uniplicate.
UHPLC-MS/MS of peptide […] was conducted with an Acquity H-class quaternary solvent manager, connected to an Acquity Xevo TQ-S triple quadrupole mass spectrometer (Waters, Milford, Mass., USA). The column compartment was kept at 45° C. and the sample compartment at 20° C. Mobile phase A consisted of water/acetonitrile/dimethylsulfoxide 90/5/5 V/V/V supplemented with 0.1% m/V formic acid and mobile phase B consisted of water/acetonitrile/dimethylsulfoxide 5/90/5 V/V/V supplemented with 0.1% m/V formic acid. Chromatography was performed with an Acquity UHPLC BEH300 C18 column (2.1×100 mm, 1.7 μm particle size) (Waters) protected with a suitable guard column. […]

Data set [3] in a line: Anti-adsorption diluent applicability for polypropylene inserts. As to conditions: 100 ng/mL, polypropylene insert, anti-adsorption diluent Source 1. The procedure: Anti-adsorption diluent applicability for polypropylene inserts. The functionality of the anti-adsorption diluent Source 1 in polypropylene inserts was evaluated via the peptide […] (100 ng/mL). The peptide was analyzed in (I) a glass insert with 50/50 V/V water/acetonitrile+0.1% m/V formic acid, (II) a polypropylene insert with 50/50 V/V water/acetonitrile+0.1% m/V formic acid, (III) a glass insert with anti-adsorption diluent Source 1, and (IV) a polypropylene insert with anti-adsorption diluent. The UHPLC-MS/MS method provided in the proof of principle experiment was applied. The experiment was performed in triplicate.
Previous experiments were all conducted using glass inserts. Plastic vials and inserts are also widely used for the chromatography of peptides. Therefore, the applicability of the anti-adsorption diluent was evaluated using a polypropylene insert. The peptide […] (100 ng/mL) was either analyzed using a glass or polypropylene insert with or without anti-adsorption diluent (see FIG. 11).

Data set [4] is described as follows: Functional evaluation of anti-adsorption diluent from 3 sources (consecutive transfer to 5 glass inserts). As to conditions: 100 ng/mL in 50/50 V/V water/acetonitrile + 0.1% m/V formic acid. On the procedure:
Functional evaluation of anti-adsorption diluent from 3 sources. The functionality of anti-adsorption diluent Source 1, Source 2, and Source 3 was evaluated via the peptide […] (SEQ ID No. 1). The peptide was diluted in either solvent (50/50 V/V water/acetonitrile supplemented with 0.1% m/V formic acid) or in 1 of the 3 anti-adsorption diluent sources to a peptide concentration of 100 ng/mL. The solution was either transferred to an insert and immediately analyzed via UHPLC-MS/MS or repeatedly transferred to inserts (5 inserts in total), with analysis of the 5th insert. UHPLC-MS/MS was carried out as previously discussed in the proof of principle (pilot experiment)-section. To prevent peptide degradation, each sample was prepared immediately prior to injection. Per condition 3 replicates were analyzed.
The pilot and pivotal experiments were carried out using anti-adsorption diluent originating from Source 1. Since Bovine Serum Albumin can differ amongst suppliers, anti-adsorption diluent was prepared originating from 3 sources, referred to as Source 1, Source 2, and Source 3. […] (100 ng/mL analytical concentration) was evaluated and (II) the peptide solution was repeatedly transferred from one insert to another (5 inserts in total) with subsequent analysis of the 5th insert. […]

Data set [5] in a line: Peptide stability by HPLC-PDA (0 h vs 3 h). As to conditions: 1 mg/mL, 3 h at 20° C. On the procedure:
The 3 h peptide stability was evaluated by high performance liquid chromatography equipped with a photo diode array detector.
The peptide stability of peptide […] (SEQ ID No: 1) was evaluated with HPLC-PDA and the Vydac Everest C18 column. The analytical solution (1 mg/mL) in acetonitrile/water (V/V)+0.1% m/V formic acid (i.e. matching solvent composition as the anti-adsorption diluent without hydrolysate components) was chromatographed with the gradient provided in Table 3. Analysis was performed with a Waters Alliance 2695 HPLC with a Waters 2695 Separations Module, combined with a Flow Through Needle, and a Waters 2996 Photodiode Array Detector with Empower 2 software for data acquisition (Waters, Milford, Mass., USA).
The peptide was injected at 0 h and 3 h.

Take “EQLSFTSIGILQLLTIGTRSCWFFYCRY (Q49) [Peptide Q49]”: the Peptide peak area was 16772.4 in data set [1] (1 nM with anti-adsorption diluent Source 1, glass vial) and 1363.8 in data set [1] (1 nM without anti-adsorption diluent, glass vial).

“MFPTIPLSRLFDNAMLRAH (Pilot peptide) [pilot experiment peptide]”: in data set [2], the “Glass adsorption of the peptide when using the anti-adsorption diluent” value is reported as “completely abolished”. Besides, in data set [3], the “Increase of peptide peak area with anti-adsorption diluent compared to without” value is given as “approximately 30%”. Also, in data set [4], the “Peptide peak area after transfer to 5 inserts, as % of peak area without transfer” value is “approximately 10%”. Besides, in data set [5], the “Additional peaks after 3 h incubation (0.5% reporting threshold)” value was “No additional peaks”.

The values are drawn from US20230089604A1, “ANTI-ADSORPTION SOLUTION” (Universiteit Gent, priority 2019, published 2023).
